Source: US11952373B2, “Method of treating hypercytokinemia by administering the CCR5/CCL5 (RANTES) interaction inhibitor maraviroc” (priority 2020, dated 2024)
“Also recorded” adds a separate entry of the source.

Key:
[1] = system: CCL5/RANTES; assay: Plasma cytokine/chemokine panel in critical COVID-19 patients, CCL5/RANTES; type: in vivo, human
Text: (§1) To determine the extent and phenotype of “cytokine storm” cytokines and chemokines in critical COVID-19, a panel of 38 cytokines/chemokines was quantified in plasma from the ten critical COVID-19 patients at Day 0, Day 3 and Day 7 post-leronlimab therapy.

[2] = system: CD8 and CD4 T-cells (PD-1, LAG-3, cleaved caspase 3); assay: Immunophenotyping / high parameter flow cytometry of T-cells and exhaustion markers in critical COVID-19 patients; type: in vivo, human; conditions: for exhaustion markers (PD-1, LAG-3, cleaved caspase 3) on CD8 and CD4 T-cells: after 700 mg leronlimab, all ten patients
[3] = system: critically ill patients with COVID-19; assay: Clinical outcome of critically ill COVID-19 patients given leronlimab; type: in vivo, human; conditions: by Day 14, 10 critically ill COVID-19 patients
[4] = system: IL-6; assay: Plasma cytokine/chemokine panel in critical COVID-19 patients, IL-6; type: in vivo, human; conditions: Day 7 post-leronlimab vs Day 0, critical COVID-19 patients
Text: as §1

[5] = biological target: CCR5 (Homo sapiens, UniProt P51681); conditions: day 7, all ten critical COVID-19 patients, 700 mg leronlimab
CCR5, sequence (P51681 whole entry): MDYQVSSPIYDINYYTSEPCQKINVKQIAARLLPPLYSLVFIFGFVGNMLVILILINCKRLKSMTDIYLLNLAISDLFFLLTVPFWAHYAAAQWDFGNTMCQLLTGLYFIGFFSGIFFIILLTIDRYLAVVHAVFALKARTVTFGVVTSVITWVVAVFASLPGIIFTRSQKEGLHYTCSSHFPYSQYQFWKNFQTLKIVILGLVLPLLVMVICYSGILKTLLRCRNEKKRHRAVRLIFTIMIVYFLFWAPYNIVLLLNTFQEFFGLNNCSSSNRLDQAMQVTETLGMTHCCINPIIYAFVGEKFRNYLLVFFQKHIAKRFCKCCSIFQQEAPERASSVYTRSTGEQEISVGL

B1: leronlimab: a humanized monoclonal antibody directed against CCR5 (antibody, chains of the INN, looked up, V domains shown)
VH: EVQLVESGGGLVKPGGSLRLSCAASGYTFSNYWIGWVRQAPGKGLEWIGDIYPGGNYIRNNEKFKDKTTLSADTSKNTAYLQMNSLKTEDTAVYYCGSSFGSNYVFAWFTYWGQGTLVTVSS
VL: DIVMTQSPLSLPVTPGEPASISCRSSQRLLSSYGHTYLHWYLQKPGQSPQLLIYEVSNRFSGVPDRFSGSGSGTDFTLKISRVEAEDVGVYYCSQSTHVPLTFGQGTKVEIK
- plasma CCL5/RANTES level change ([1]; Day 7 post-leronlimab, critical COVID-19 patients): remained high; also recorded: did not drop as abruptly
- plasma CCL5/RANTES level change ([1]; Day 14, patients where data was available): initiation of a drop
- exhaustion markers (PD-1, LAG-3, cleaved caspase 3) on CD8 and CD4 T-cells [2]: improvement in exhaustion markers
- exhaustion markers (PD-1, LAG-3, cleaved caspase 3) on CD8 and CD4 T-cells ([2]; listed as Leronlimab): improvements in exhaustion markers
- immune restoration including T-cell numbers ([2]; all patients): immune restoration
- T-cell level and CD4/CD8 ratio ([2]; as little as 3 days post-therapy): begins to restore T-cell level and correct the gross alteration of CD4/CD8 ratio
- immune profile compared to normal control blood ([2]; by Day 7 after 700 mg leronlimab): resembled the normal control blood
- expression of PD-1 and LAG3 on T-cells ([2]; following 7 days of leronlimab, compared to Day 0): significantly decreases
- patients extubated and released [3]: 4
- patients surviving [3]: six out of 10
- plasma IL-6 level change [4]: reduces IL-6; also recorded: significantly decreased; also recorded: dropped dramatically
- blockade of CCR5 as determined by receptor occupancy [5]: ~100%
